Test results from the DeepSol protein solubility set.

experiment: soluble on expression in E. coli; label from the status in PepcDB or PDB records

| Sequence | soluble on expression in E. coli |
| --- | --- |
| MTHQTHTIAESNNFIVLDKYIKAEPTGDSYQSESDLERELIQDLRNQGYEFISVKSQSAMLANVREQLQNLNGVVFNDSEWRRFTEQYLDNPSDGILDKTRKIHIDYICDFIFDDERLENIYLIDKKNLMRNKVQIIQQFEQAGSHANRYDVTILVNGLPLVQIELKKRGVAIREAFNQIHRYSKESFNSENSLFKYLQLFVISNGTDTRYFANTTKRDKNSFDFTMNWAKSDNTLIKDLKDFTATCFQKHTLLNVLVNYSVFDSSQTLLVMRPYQIAATERILWKIKSSFTAKNWSKPESGGYIWHTTGSGKTLTSFKAARLATELDFIDKVFFVVDRKDLDYQTMKEYQRFSPDSVNGSENTAGLKRNLDKDDNKIIVTTIQKLNNLMKAESDLPVYNQQVVFIFDECHRSQFGEAQKNLKKKFKRYYQFGFTGTPIFPENALGSETTASVFGRELHSYVITDAIRDEKVLKFKVDYNDVRPQFKSLETETDEKKLSAAENQQAFLHPMRIQEITQYILNNFRQKTHRTFPGSKGFNAMLAVSSVDAAKAYYATFKRLQEEAANKSATYKPLRIATIFSFAANEEQNAIGEISDETFDTSAMDSSAKEFLDAAIREYNSHFKTNFSTDSNGFQNYYRDLAQRVKNQDIDLLIVVGMFLTGFDAPTLNTLFVDKNLRYHGLMQAFSRTNRIYDATKTFGNIVTFRDLERSTIDAITLFGDKNTKNVVLEKSYTEYMEGFTDAATGEAKRGFMTVVSELEQRFPDPTSIESEKEKKDFVKLFGEYLRAENILQNYDEFATLKALQQIDLSDPVAVEKFKAEHYVDDEKFAELQTIRLPADRKIQDYRSAYNDIRDWQRREKEAEKKEKSTTDWDDVVFEVDLLKSQEINLDYILGLIFEHNRQNKGKGEMIEEVKRLIRSSLGNRAKEGLVVDFIQQTNLDDLPDKASIIDAFFTFAQREQQREAEALIKEENLNEDAAKRYIRTSLKREYATENGTELNETLPKLSPLNPQYKTKKQAVFQKIVSFIEKFKGVGGKI | soluble |
| MPAFFVKAGAKKSGGGAAATRKRKNGGKSDAKSEEMAAKMSRRQKIMAATEIHSDEEDSLAGSAAASEAGSDVEYEDAHERNYREAKKLLDKIQSTTTTQEEVAEKLRDDAVARTGTQVKRVADVVELEDDLEISYKPHRLSPLCVAFSPDAKYVISCGKESSIVKFNVGTRKVVGIIKRTKKRAGVPEEPTNAHYGVIFTVAVSPDQKFIASGGFDQVVKAPKNMKILFQIWNFDSLEHIKDLSGHRGPIFSLTFQLKTNNLYSASQDRSVKMWDIDQLGLVDTMYGHQDGVQQIGVLSKQRVATVGGRDRSARLWKVEDESQLMFSGLQNCVSLDCVAMINEEHFATGSADGSIALWSFWKKRALHVRKQAHGTQNGSGRWIVALAVLPYSDLLASGSNEGELKLWKISENFRQLTPFFSYSIPGFINSINFAPNGKSIVVGAGKEHKDGRWWVDREARNQVVILPIKYTDGSDNNDVTIGDKTASGTVSGASAGGGGGIESGDESEEEEEELEEELEEEEEEIEE | not soluble |
| MSLEKLMALYNISSPSGKEGKIAGFIIGELRRMGIPFRQDRYGNIYAVKGNRESYPCVVAHMDEVHRRKTGSYAAHLVADSMIVGYDHKRKRMTGIGADDKNGIWICLKCLEDFKAVKCAFFVQEEIGCIGSGHADMSFFSDCRFVIQCDRKGNGDMVTQINGMRLCSNEFISAVDPRKYGYKPAQGLATDVAALKRNGLEVSCVNLSCGYYEPHTDNEYTVLADLCKCYRFVRHIICCHKEGHHHHHH | soluble |
| MMICGVFCMYKERKRMTKKELALEYHKKGYNCTQAVACAFCGEFGVSEEEMYKIAEGFGLGMGMMDTCGALTGLFMLIGMKNSGGVEQAGKTKADTYKKTREYAAKFKEINGSVYCKELKGVETGKILAPCDKCILDAVELAEQFLKEN | not soluble |
| MNIQHNLNLIQQKIETACKEENRNQNTVKLLAVSKTKPISAILSAYQAGQTAFGENYVQEGVEKIQYFESQGINLEWHFIGPLQSNKTRLVAEHFDWMQTLDRAKIADRLNEQRPTNKAPLNVLIQINISDEESKSGIQPEEMLTLAKHIENLPHLCLRGLMAIPAPTDNIAEQENAFRKMLELFEQLKQVLPNQQIDTLSMGMTDDMPSAIKCGSTMVRIGTAIFGARNYSTSQNK | not soluble |
| MGSDKIHHHHHHMVQREKNVVNEQEIELIIGNSNSNFSGVTSTMLQVLSHEQSLINLRVMGKHHLPDESLSISFWQVANLSTKPLPKGKFRIFHARRVDEMIQALLLKYVFRVKLKIVFSSAAQRYRSGFTLWLTDRMDAVLAMCKASASYLHRKPDAIIYHGVKTDIYLPATDKSKAWQSLGLLPENSAKGKKGIAILGRVRKQKGVHLFVESCIDILKDRPDYTAVIVGSISSSNESFVNELQSKIDQAGLTERIVFAGEQNFADIPKIFSSLSLVVALSENEGFGLTILEAMSSGAAVLASEAGAWPEVVRQGVDGYVVPINDLDAVTEKMSLLLADEEKLMQMGRDGRERVLEHYSVEREAKELVTFFRSLM | not soluble |
| MAGTGHTPEEALALLKRGAEEIVPEEELLAKLKEGRPLTVKLGADPTRPDLHLGHAVVLRKMRQFQELGHKVVLIIGDFTGMIGDPSGRSKTRPPLTLEETRENAKTYVAQAGKILRQEPHLFELRYNSEWLEGLTFKEVVRLTSLMTVAQMLEREDFKKRYEAGIPISLHELLYPFAQAYDSVAIRADVEMGGTDQRFNLLVGREVQRAYGQSPQVCFLMPLLVGLDGREKMSKSLDNYIGLTEPPEAMFKKLMRVPDPLLPSYFRLLTDLEEEEIEALLKAGPVPAHRVLARLLTAAYALPQIPPRIDRAFYESLGYAWEAFGRDKEAGPEEVRRAEARYDEVAKGGIPEEIPEVTIPASELKEGRIWVARLFTLAGLTPSNAEARRLIQNRGLRLDGEVLTDPMLQVDLSRPRILQRGKDRFVRVRLSD | soluble |
| MGSDKIHHHHHHMQMDLETAVMKKKESLNETDKAIVSYLLKYPEDASKLSLMELAQKLYVSKSAIFRLSKKLGLSGFSELKFELTELTNKKVQNKKYVQELDFNNNLHQIIDETFKYFKDANFHDLFIDLDNAETIYIYSTGWQQQIIAEYLAHSFFLIGKKAIILPSAKDEVAMLGRSIEENDMLFVISFGGFNKTIIEELKKIDTVTDKLKFVSLTSWQPGKIASLSDYSFFFKTTPFQISNQNAVTFSSAYVLIDLIINEYGKHCNSKK | not soluble |
| MAHHHHHHMVFSTHGIRVVYNTANVDRSLYAVVHCSDGKYAEVSKDHLNRLKFIEKSSEEEDIEFDYPEAVLESLAQWTLKYGMDGVAVSSTVRPCIYRNVQHVLKDDWEREFFTTRLMNDLNIMHYLQTINAAEKYEMKGFHDFLCVCLSCKLRNEEDTELVHKIMGLEDFVEIGPSDLDEAACRYTWLDQAIKPTVRR | not soluble |
| MSNQYDPSQPVVFTDFSPKEGGMRTRLYIEGSNFGNDPTKIHITIGGEKTKTIGADGKKIYCMVPSKAFDGIINVRVDGPDGKPIAEHTFEEEFKYTPATIVGTLLRKVDEDNNSAFQEGSFDEGASIPSNDCMVFDPKYKDGDNRLLFSSNHSDGLHLIDLTERTVKRLFPRTGYSTMYSFTFSADGDTLLFTDDHGQDNTTRANIYYSLRRENFRRIRPYNYGRTAYSLVYMDDGTIFYTTWWEGKVYKMIRNGAIPNIDENAEVAFSLSQISAVGGSHTILFRHPSNKFMYMLSDNFGAVFRADYDPVAKTFGNPSIIAGNMNDKSFKEGTGGSARFNKPQFGVFVKNEKYGEGIGPDNDQYDFYFCDRENHCIWKLDPHGVASLAAGRSNENADGKIWGYVDGNPLHEARFNQPAGLAYDPDTDMFYIGDIDNKGIRYMTTELEHHHHHH | not soluble |
| MQKTVVEIEKASHVLKLLGDKTRLTIMAILKQRECCVCELLEVFDMSQPAISQHLRKLKDAGLVKEDKRGQWIYYSLNSQNELYDFIQDILQHIPDQTENIRKIEETNPTLRCGC | soluble |
| MGSDKIHHHHHHMPLTNHTPEDRVQDIFDHIAPQYDQMNSVISLGTHHWWRQRVMQAMTLHAGDFALDVCCGTGDWTIALAQAVGPAGHVVGFDFSGVMLQHATTKVRQAQLDDRITLRQGDAMQLPYPDNYFNVVTIGFGLRNVPDATQVLREMARVVKPGGQVVCLETSQPTNPLVHAGWQVYFGHVVPLMGRLAHHYQAYNYLQSSTHHFVSAKELSRLFTAAGLTQVHYDLFNLGAAAVHWGRKPY | not soluble |
| MLSPDNVFIAIKPVDMRRGIDSLTQYIQDELRSTWHEGAAFVFVNKARSRIKVLRWDKHGVWLCTRRLHKGSFRWPRANDAAWHLTPDEFNWLIAGVDWQQVKGHDLTKWVWQNEPELRPENTQNTLLTQ | not soluble |
